Data on two molecules can be found in article PMC7026639.

Where two headings read alike, the source gives them in different places.

For data set [1], the target named is T1, HhaI restriction endonuclease (R.HhaI) (Haemophilus haemolyticus NEB129 (now …, UniProt A0ABF7PI58 1-258)). As to the kind of experiment: X-ray crystallography.
Data set [2] has as its target T1, HhaI restriction endonuclease (R.HhaI). Kind of data set: X-ray crystallography. The source holds these as a separate data set.

B1: 13-bp iodo oligo (dsDNA)
DNA 1: TCCAAGCGCAACG
DNA 2: CGUTGCGCTUGGA
modifications: 5-iodo-uridine at positions 3 and 10 of strand 2 (printed as I, written as U)
In the case of B1, in data set [1], the binding result is listed as “binds”.

B2: 14-bp cognate oligo (dsDNA)
DNA 1: TCCAAGCGCAACAG
DNA 2: CTGTTGCGCTTGGA
In the case of B2, the binding result in data set [2] is listed as “binds”.
